Results reported in US12068729B2, “Anti-factor XII/XIIa antibodies and uses thereof” (Regeneron Pharmaceuticals, Inc., priority 2018, dated 2024).

T1: human FXII (Homo sapiens, UniProt P00748)
T1 construct: plasma purified human FXII and FXIIa proteins (Enzyme Research Laboratories); purchased Enzyme Research Laboratories 1212; host or cells: human plasma (said of the same vendor's proteins used as immunogen)
T1 sequence (P00748 20-615): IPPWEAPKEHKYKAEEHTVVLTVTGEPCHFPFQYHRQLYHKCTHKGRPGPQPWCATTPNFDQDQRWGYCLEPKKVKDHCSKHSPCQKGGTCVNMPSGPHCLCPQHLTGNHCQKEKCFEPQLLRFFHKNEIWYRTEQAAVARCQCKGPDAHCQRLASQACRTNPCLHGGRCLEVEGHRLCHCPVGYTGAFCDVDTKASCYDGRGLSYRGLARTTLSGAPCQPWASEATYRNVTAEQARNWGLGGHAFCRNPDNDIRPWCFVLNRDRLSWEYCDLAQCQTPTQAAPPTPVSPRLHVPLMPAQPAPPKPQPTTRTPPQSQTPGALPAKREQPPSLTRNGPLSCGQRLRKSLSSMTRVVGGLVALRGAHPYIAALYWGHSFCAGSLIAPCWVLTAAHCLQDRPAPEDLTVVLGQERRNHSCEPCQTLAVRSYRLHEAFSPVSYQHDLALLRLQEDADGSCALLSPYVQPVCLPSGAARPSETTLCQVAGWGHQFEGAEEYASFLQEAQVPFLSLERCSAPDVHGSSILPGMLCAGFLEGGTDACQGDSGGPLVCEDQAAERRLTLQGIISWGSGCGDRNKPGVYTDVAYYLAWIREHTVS

T2: human FXIIa (Homo sapiens, UniProt P00748)
T2 construct: Factor XIIa, a beta-globulin plasma serine protease composed of an amino-terminal heavy chain and a carboxy-terminal light chain; purchased Enzyme Research Laboratories 1212a; host or cells: human plasma (said of the same vendor's proteins used as immunogen)
T2 sequence (P00748 20-372 limits assumed): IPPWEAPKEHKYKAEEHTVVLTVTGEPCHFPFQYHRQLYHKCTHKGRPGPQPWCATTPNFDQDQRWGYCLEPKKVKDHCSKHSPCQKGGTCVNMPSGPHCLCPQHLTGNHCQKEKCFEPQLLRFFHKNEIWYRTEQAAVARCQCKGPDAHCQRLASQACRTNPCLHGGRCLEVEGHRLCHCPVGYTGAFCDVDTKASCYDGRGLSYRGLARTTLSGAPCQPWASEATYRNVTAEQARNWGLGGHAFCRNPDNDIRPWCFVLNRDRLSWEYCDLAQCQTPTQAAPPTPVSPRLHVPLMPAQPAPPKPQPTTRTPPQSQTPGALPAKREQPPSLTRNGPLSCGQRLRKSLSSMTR
T2 sequence (P00748 373-615 limits assumed): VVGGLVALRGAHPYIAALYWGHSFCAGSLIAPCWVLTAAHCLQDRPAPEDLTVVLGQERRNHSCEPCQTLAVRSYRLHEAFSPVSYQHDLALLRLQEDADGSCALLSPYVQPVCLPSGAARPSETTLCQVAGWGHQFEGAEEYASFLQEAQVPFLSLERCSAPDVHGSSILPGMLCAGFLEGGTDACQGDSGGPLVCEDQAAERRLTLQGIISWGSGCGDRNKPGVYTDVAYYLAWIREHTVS


Experiments:
human FXII = biological target: T1, human FXII; assay: Surface plasmon resonance (Biacore 4000) binding kinetics, hFXII
Procedure: (§1) Equilibrium dissociation constant (KD) for different FXII reagents binding to purified anti-FXII monoclonal antibodies were determined using a real-time surface plasmon resonance based Biacore 4000 biosensor. All binding studies were performed in 10 mM HEPES, 300 mM NaCl, and 0.05% v/v Surfactant Tween-20, pH 7.4 (HBS-P) running buffer at 25° C. and 37° C. The Biacore CM5 sensor chip surface was first derivatized by amine coupling with the mouse anti-human Fc specific monoclonal antibody (GE Healthcare Cat #BR100839) to capture anti-FXII monoclonal antibodies. Binding studies were performed on human FXII and FXIIa (Enzyme Research Laboratories, Cat #1212 and 1212a, respectively). Different concentrations of hFXII and hFXIIa (50 nM-3.125 nM; 2-fold serial dilution) were first prepared in HBS-P running buffer and were injected over anti-human Fc captured anti-FXII monoclonal antibody surface for 3 minutes at a flow rate of 30 uL/minute, while the dissociation of monoclonal antibody bound FXII reagent was monitored for 5 minutes in HBS-P running buffer. The association rate (ka) and dissociation rate (kd) were determined by fitting the real-time binding sensorgrams to a 1:1 binding model with mass transport limitation using Scrubber 2.0c curve-fitting software. Binding dissociation equilibrium constant (KD) and dissociative half-life (t½) were calculated from the kinetic rates as: […]

human FXIIa = biological target: T2, human FXIIa; assay: Surface plasmon resonance (Biacore 4000) binding kinetics, hFXIIa
Procedure: as §1

[1] = tested on: Intrinsic and Common pathways of the coagulation cascade; assay: Activated Partial Thromboplastin Time (aPTT) in pooled normal human plasma; type: biochemical; conditions: dose response curves, pooled normal human plasma
Description: This Example describes the inhibitory activity of selected antibodies, as determined by four functional plasma assays: 1) Activated Partial Thromboplastin Time (aPTT), 2) Prothrombin Time (PT), 3) Thrombin Generation Assay (TGA) triggered by ellagic acid and 4) TGA triggered by Tissue Factor. The aPTT test evaluates all clotting factors of the Intrinsic and Common pathways of the coagulation cascade by measuring time for a clot to form after the addition of calcium and ellagic acid, whereas the PT test evaluates all clotting factors of the Extrinsic and Common pathways of the coagulation cascade after the addition of calcium and Tissue Factor. The TGA triggered by ellagic acid measures the rate and amount of thrombin generated via the Intrinsic and Common pathways whereas TGA triggered by Tissue Factor measures the rate and amount of thrombin generated via the Extrinsic and Common pathways.
The aPTT was determined on Diagnostica Stago STart4 Hemostasis Analyzer in the following manner: A total of 50 ul of pooled normal human plasma was added to a cuvette at 37° C. After 1 min, 5 ul of a 2× serially diluted test article (antibody or small molecule inhibitor) in PBS was added to the cuvette and allowed to incubate for 5 min. Then 50 ul of APPT-XL Ellagic Acid (Thermo Scientific) was added and allowed to incubate for 300 seconds before 50 ul of 20 mM calcium chloride (Thermo Scientific) was added to start the reaction. The measured clot time for the test article concentration was normalized to baseline (no drug) plasma clot time and plotted against log molar concentration of the test article. The results were analyzed using nonlinear regression (4-parameter logistics) with Prism 5 software (GraphPad) to obtain doubling time concentration.

Molecule	Kd (human FXII; 25° C.) [nM]	ka (human FXII; 25° C.) [M⁻¹ s⁻¹]	kd (human FXII; 25° C.) [s⁻¹]	t½ (human FXII; 25° C.) [min]	Kd (human FXII; 37° C.) [nM]	ka (human FXII; 37° C.) [M⁻¹ s⁻¹]	kd (human FXII; 37° C.) [s⁻¹]	t½ (human FXII; 37° C.) [min]	Kd (human FXIIa; 25° C.) [nM]	ka (human FXIIa; 25° C.) [M⁻¹ s⁻¹]	kd (human FXIIa; 25° C.) [s⁻¹]	t½ (human FXIIa; 25° C.) [min]	Kd (human FXIIa; 37° C.) [nM]	ka (human FXIIa; 37° C.) [M⁻¹ s⁻¹]	kd (human FXIIa; 37° C.) [s⁻¹]	t½ (human FXIIa; 37° C.) [min]	effect on plasma aPTT (in words) [1]
mAb26048: fully human anti-FXII/FXIIa monoclonal antibody, HCVR/LCVR SEQ ID NOs: 18/26 (antibody, V domains shown) VH: EVQLVESGGGLVQPRGSLRLSCVASGFTFSDYGMSWVRQAPGKGLEWVSVIGGAGHGTYYADSVKGRFTISRDNSRNTLYLQMNSLRDEDTAVYYCAKKYYWNYVGGMDVWGRGTTVTVSS VL: DIQMTQSPSSVSASVGDRVTITCRASQDINNWLAWYQQKPGKAPKLLISTASSLQSGVPSRFSGSGSGTDFTLTISSLQPEDFATYYCQQANSLPFTFGPGTKVDIK	0.879	361000	0.000317	36.5	2.53	276000	0.000698	17	2.07	208000	0.00043	26.8	1.79	439000	0.000784	15	prolonged the aPTT
mAb26049: fully human anti-FXII/FXIIa monoclonal antibody, HCVR/LCVR SEQ ID NOs: 34/42 (antibody, V domains shown) VH: EVQLVESGGDLVQPGGSLRLSCAASGFTFNTYAMHWVRQAPGKGLEYISAIDTKGGSTYYADSVKGRFTISRDNSKNAQYLQMDSLRVEDMAVYYCARGFGLDVWGQGTTVTVSS VL: DVVMTQSPLSLAVTLGQPASISCRSSQSLGYSDGNTYLNWFQQRPGQSPRRLIYKVSNRDSGVPDRFSGSGSGTDFTLKINRVETVDVGVYYCMQATHWPYTFGQGTKLEIK	2.74	90100	0.000247	46.7	8.78	87000	0.000764	15	5.07	97600	0.000495	23.4	6.31	244000	0.00154	7	prolonged the aPTT
mAb26036: fully human anti-FXII/FXIIa monoclonal antibody, HCVR/LCVR SEQ ID NOs: 2/10 (antibody, V domains shown) VH: QVQLVQSGAEVKKPGASVTVSCKASGYTFTSYYLHWVRQAPGQGLEWMGIINPSGGSTSYAQKFQGRVTMTRDTSTSTVYMELSSLRSEDTAVYYCARGVTTVTTYYHYYNMDVWGQGTTVTVSS VL: DIQMTQSPSSLSASVGDRVTITCRASQGISNYLAWFQQKPGKAPKSLIYAASSLQSGVPSKFSGSGSGTDFTLTISSLQPEDFATYYCQKYNTYPLTFGGGTKVEIK	3.12	76300	0.000238	48.5	4.62	121000	0.00056	20.6	3.78	42800	0.000162	71.4	4.74	84600	0.000401	29	prolonged the aPTT
